Experiments:
RsmA [1] = target: T1, RsmA (Pseudomonas aeruginosa M18, UniProt O69078 1-61); assay: EMSA; RsmA 0-400 nM; EMSA: 200 mM KCl, 100 mM HEPES pH 7.3, 10 mM MgCl2, 2 ug tRNA, 5% glycerol, 10 mM DTT, room temp 30 min, 1 nM RNA; SPR: 200 mM NaCl, 20 mM Tris-HCl pH 8.0, 1 mM EDTA, 1 mM DTT, 25 C; conditions: protein: recombinant; tags: C-terminal His tag; chain copies: 2; label: 3' biotin
RsmA [2] = target: T1, RsmA; assay: SPR; biotin-RNA on SA chip; 200 mM NaCl, 20 mM Tris-HCl pH 8.0, 1 mM EDTA, 1 mM DTT; 25 C; EMSA: 200 mM KCl, 100 mM HEPES pH 7.3, 10 mM MgCl2, 2 ug tRNA, 5% glycerol, 10 mM DTT, room temp 30 min, 1 nM RNA; SPR: 200 mM NaCl, 20 mM Tris-HCl pH 8.0, 1 mM EDTA, 1 mM DTT, 25 C; conditions: protein: recombinant; tags: C-terminal His tag; chain copies: 2; label: 3' biotin

T1 sequence (O69078 whole entry): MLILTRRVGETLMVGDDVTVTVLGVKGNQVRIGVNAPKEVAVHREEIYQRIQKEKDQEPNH

Row | Binder | binding result (RsmA [1]) | Kd (RsmA [2])
1 | GGGCAACUUUUGCCCGGAAAAAGCUUCACGGCAAUUUCUC (ssRNA) [phz2-S2] | no binding | –
2 | GGCAAUUCGGCAUUAGUUGAAACUUUGGAGACGCUCCGAA (ssRNA) [phz2-S1] | no binding | –
3 | UCUUCUUUCCGGUAUGGAUGCCAGUCGAUUC (ssRNA) [phz2-S3] | – | 54.5 nM
4 | UCUUCUUUCCGGUAUUUCUGCCAGUCGAUUC (ssRNA) [phz2-S3M] | no binding | –
